How the values were obtained:
[1] = test system: T1, PpTAL; assay: coumaric acid formation at […] nm; assay type: biochemical, Pleurotus pulmonarius; conditions: Tris-HCl, 40 °C, 30 min; pH 9.5 in table note (buffer pH 8.5 in methods)
T1 construct: gene TAL; codon-optimised synthetic gene in pET32a, E. coli BL21(DE3); purified; tags not described

[2] = test system: T2, LeTAL; assay: coumaric acid formation at […] nm; assay type: biochemical, Lentinula edodes; conditions: Tris-HCl, 40 °C, 30 min; pH 9.5 in table note (buffer pH 8.5 in methods)
T2 construct: gene TAL; codon-optimised synthetic gene in pET32a, E. coli BL21(DE3); purified; tags not described

[3] = test system: T3, TrTAL; assay: coumaric acid formation at […] nm; assay type: biochemical, Tephrocybe rancida; conditions: Tris-HCl, 40 °C, 30 min; pH 9.5 in table note (buffer pH 8.5 in methods)
T3 construct: gene TAL; codon-optimised synthetic gene in pET32a, E. coli BL21(DE3); purified; tags not described

[4] = test system: T4, TALclu; assay: coumaric acid formation at […] nm; assay type: biochemical, Chryseobacterium luteum; conditions: Tris-HCl, 40 °C, 30 min; pH 9.5 in table note (buffer pH 8.5 in methods)
T4 construct: gene TAL; codon-optimised synthetic gene in pET32a, E. coli BL21(DE3) per general method; purified; tags not described

[5] = test system: N[C@@H](Cc1ccc(O)cc1)C(=O)O; assay: purified protein; conditions: Tris-HCl, 40 °C, 30 min, pH 9.5 in table note (buffer pH 8.5 in methods)
[6] = test system: T5, N[C@@H](Cc1ccc(O)cc1)C(=O)O; assay: purified protein; assay type: biochemical, Rhodotorula glutinis; conditions: Tris-HCl, 40 °C, 30 min, pH 9.5 in table note (buffer pH 8.5 in methods)
T5 construct: full length 693 residues; pET32a, E. coli BL21(DE3); purified; tags not described

[7] = substrate: N[C@@H](Cc1ccc(O)cc1)C(=O)O; assay: purified protein; assay type: biochemical, Armillaria solidipes; conditions: Tris-HCl, 40 °C, 30 min, pH 9.5 in table note (buffer pH 8.5 in methods)
[8] = substrate: N[C@@H](Cc1ccc(O)cc1)C(=O)O; assay: purified protein; assay type: biochemical, Rhodotorula glutinis; conditions: Tris-HCl, 40 °C, 30 min, pH 9.5 in table note (buffer pH 8.5 in methods)

Molecule	Km [6]	kcat [6]	kcat/Km [6]	also measured
N[C@@H](Cc1ccc(O)cc1)C(=O)O [L-tyrosine]				Km [1]: 40 µM; Km [2]: 70 µM; Km [3]: 40 µM; Km [4]: 50 µM
AaTAL (Aspergillus arachidicola)				Km [5]: 30 µM; kcat [5]: 25.2 s⁻¹; kcat/Km [5]: 841000 M⁻¹ s⁻¹
IsTAL (Ilyonectria sp. MPI-CAGE-AT-0026)				Km [5]: 570 µM; kcat [5]: 120 s⁻¹; kcat/Km [5]: 210000 M⁻¹ s⁻¹
PcTAL (Puccinia coronata f. sp. avenae)				Km [5]: 170 µM; kcat [5]: 66.6 s⁻¹; kcat/Km [5]: 392000 M⁻¹ s⁻¹
RgTAL (Rhodotorula glutinis; E366H)	480 µM	40.3 s⁻¹	84000 M⁻¹ s⁻¹	
RgTAL (Rhodotorula glutinis; E366W)	850 µM	31 s⁻¹	36500 M⁻¹ s⁻¹	
RgTAL (Rhodotorula glutinis; E587V)	330 µM	163 s⁻¹	494000 M⁻¹ s⁻¹	
RgTAL (Rhodotorula glutinis; I668S)	3850 µM	53.6 s⁻¹	13900 M⁻¹ s⁻¹	
RgTAL (Rhodotorula glutinis; K603P)	1150 µM	52.6 s⁻¹	45700 M⁻¹ s⁻¹	
RgTAL (Rhodotorula glutinis; Q10Y)	820 µM	884 s⁻¹	1.08e+06 M⁻¹ s⁻¹	
RgTAL (Rhodotorula glutinis; Q337C)	6480 µM	96.8 s⁻¹	14900 M⁻¹ s⁻¹	
RgTAL (Rhodotorula glutinis; Q337D)	850 µM	34.8 s⁻¹	40900 M⁻¹ s⁻¹	
RgTAL (Rhodotorula glutinis; R489T)	710 µM	817 s⁻¹	1.15e+06 M⁻¹ s⁻¹	
AsTAL (Armillaria solidipes) (protein, codon-optimised synthetic gene in pET32a, E. coli BL21(DE3); purified; tags not described) MPASVFDDINSETKSGKGVGGVSGAHRTPSLLAKFLDSHKELKSYRNGRPVKVDGHTLSIAAVTAAARYNATVDLDGSPQVKAGVMKSRAVIADKVDNGTSVYGVSTGFGGSADTRTDQPLKLGQALLQHQHAGVLPSSDRTLDVLPLLDPMASTSMPESWVRGAMLVRMNSLIRGHSGVRWELLEKINELLRANITPVVPLRSSISASGDLSPLSYVAGTLVANPSIRVFDGPKKFGARKMVSSKDALASHGIQPISLVSKEGLGILNGTAFSASVASLALNDAVHLALLAQICTALGTEALSGTLGNYAPFIHATARPHPGQVESARHIWNLLRGSKLATTHEEEVSINQDKYSLRQDRYPLRTAPQFLGPQIEDILSALSTVIQECNSTTDNPLIDGETGEVHHGGNFQAMAVSNAMEKTRLALHHIGRLLFAQSTELVNPVMNHGLPPSLAASDPSLNYHGKGVDIATAAYVAELGYLAGPVTTHIQSAEMHNQAVNSLALISARATVNALEVLTMLMSSYLYLLCQAVDLRALRREFNTGLKSILSEELSAILGSQLSSQEIDISVSSMWGVVQTTLDKTTTMDAVDQMREVATACIPALIETVSRTNAINNALSSISQFRTNVASKATKLMAELRSSYLLGGRGPAPAGPYLGKTRAVYEYIRITLGVKMHGIENLGSFPNGLGVDDVTIGQNITAIFEAIRDGNFQDAVADLFEVLPHVKL				Km [7]: 540 µM; kcat [7]: 449 s⁻¹; kcat/Km [7]: 831000 M⁻¹ s⁻¹
RgTAL (Rhodotorula glutinis) (protein, full length 693 residues; pET32a, E. coli BL21(DE3); purified; tags not described) MAPRPTSQSQARTCPTTQVTQVDIVEKMLAAPTDSTLELDGYSLNLGDVVSAARKGRPVRVKDSDEIRSKIDKSVEFLRSQLSMSVYGVTTGFGGSADTRTEDAISLQKALLEHQLCGVLPSSFDSFRLGRGLENSLPLEVVRGAMTIRVNSLTRGHSAVRLVVLEALTNFLNHGITPIVPLRGTISASGDLSPLSYIAAAISGHPDSKVHVVHEGKEKILYAREAMALFNLEPVVLGPKEGLGLVNGTAVSASMATLALHDAHMLSLLSQSLTAMTVEAMVGHAGSFHPFLHDVTRPHPTQIEVAGNIRKLLEGSRFAVHHEEEVKVKDDEGILRQDRYPLRTSPQWLGPLVSDLIHAHAVLTIEAGQSTTDNPLIDVENKTSHHGGNFQAAAVANTMEKTRLGLAQIGKLNFTQLTEMLNAGMNRGLPSCLAAEDPSLSYHCKGLDIAAAAYTSELGHLANPVTTHVQPAEMANQAVNSLALISARRTTESNDVLSLLLATHLYCVLQAIDLRAIEFEFKKQFGPAIVSLIDQHFGSAMTGSNLRDELVEKVNKTLAKRLEQTNSYDLVPRWHDAFSFAAGTVVEVLSSTSLSLAAVNAWKVAAAESAISLTRQVRETFWSAASTSSPALSYLSPRTQILYAFVREELGVKARRGDVFLGKQEVTIGSNVSKIYEAIKSGRINNVLLKMLA				Km [8]: 360 µM; kcat [8]: 118 s⁻¹; kcat/Km [8]: 327000 M⁻¹ s⁻¹

From paper PMC10713628, “UniKP: a unified framework for the prediction of enzyme kinetic parameters” (Nature Communications, 2023)
